Reference: PMC11239674
Changes are numbered by the printed parent chain.

Assays:
Assay in all cases: MST
Details in all cases: 25 mM Tris-HCl pH 8.0, 150 mM NaCl (150 mM LiCl for Sc1 LiCl), 1 mM DTT, 0.1 mg/ml BSA; 20 nM Cy5-RNA; about 2 min incubation; temperature not stated; low values mean tight binding
[1] = molecular target: T1, AtGRP7StoE S132E;S139E (Arabidopsis thaliana) (UniProt Q03250)
T1 sequence: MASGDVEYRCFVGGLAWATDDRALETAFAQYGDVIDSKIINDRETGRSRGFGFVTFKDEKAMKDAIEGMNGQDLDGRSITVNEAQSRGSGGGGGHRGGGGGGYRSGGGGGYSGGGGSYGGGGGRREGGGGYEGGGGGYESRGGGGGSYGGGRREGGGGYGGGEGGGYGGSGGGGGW

[2] = molecular target: T2, AtGRP7StoG S132G;S139G (Arabidopsis thaliana) (UniProt Q03250)
T2 sequence: T1 sequence with E132G, E139G

[3] = molecular target: T3, AtGRP7YtoG Y103G;Y111G;Y118G;Y131G;Y138G;Y148G;Y159G;Y167G (Arabidopsis thaliana) (UniProt Q03250)
T3 sequence: T1 sequence with Y103G, Y111G, Y118G, Y131G, E132S, Y138G, E139S, Y148G, Y159G, Y167G

[4] = molecular target: T4, AtGRP7 (Arabidopsis thaliana) (UniProt Q03250)
T4 sequence: T1 sequence with E132S, E139S

[5] = molecular target: T5, AtBnGRP7 (Arabidopsis thaliana / Brassica napus chimera) (UniProt Q03250)
T5 sequence: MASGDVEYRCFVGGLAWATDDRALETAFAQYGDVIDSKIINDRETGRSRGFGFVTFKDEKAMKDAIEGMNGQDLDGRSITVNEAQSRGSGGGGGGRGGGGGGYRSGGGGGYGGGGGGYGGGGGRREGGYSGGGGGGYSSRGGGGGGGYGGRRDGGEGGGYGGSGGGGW

[6] = molecular target: T6, BnGRP7 (Brassica napus) (UniProt A0A078J5Z4)
T6 sequence: T5 sequence with G4P, A29S, Y31F, I35L, A61S

[7] = molecular target: T7, AtGRP7short (Arabidopsis thaliana) (UniProt Q03250)
T7 sequence: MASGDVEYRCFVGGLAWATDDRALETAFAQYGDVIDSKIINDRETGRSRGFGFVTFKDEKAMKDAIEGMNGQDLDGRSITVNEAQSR

[8] = molecular target: T8, AtGRP7YtoE Y103E;Y111E;Y118E;Y131E;Y138E;Y148E;Y159E;Y167E (Arabidopsis thaliana) (UniProt Q03250)
T8 sequence: T1 sequence with Y103E, Y111E, Y118E, Y131E, E132S, Y138E, E139S, Y148E, Y159E, Y167E

Substance	Kd [1] [nM]	Kd [2] [nM]	Kd [3] [nM]	Kd [4] [nM]	Kd [5] [nM]	Kd [6] [nM]	Kd [7] [nM]	Kd [8] [nM]
GGAUGGCGAUGUCUUUCUCAGGAGCUGUUCUCACUGGUAUGGCUUCUUCUUUCCACAGCGGAGCCAAGCAGAGCAGCUUCGGCGCUGUCAGAGUCGGCCAGAAAACUCAGUUCGUCGUCGUUUCUCAACGCAAGAAGUCGUUGAUCUACGCCGCUAAAGGUGACGGCAACAUCCUCGAUGACCUCAACGAGGCCACAAAGAAAGCUUCAGAUUUCGUGACGGAUAAAACAAAAGAGGCAUUAGCAGAUGGUGAGAAAGCGAAAGACUACGUUGUUGAAAAAAACAGUGAAACCGCAGAUACAUUGGGUAAAGAAGCUGAGAAAGCUGCGGCGUAUGUGGAGGAGAAAGGAAAAGAAGCCGCAAACAAGGCGGCAGAGUUCGCGGAGGGUAAAGCAGGAGAGGCUAAGGAUGCCACAAAGUAG [AtCOR15A]	2470	2300	2700	62	548	153		
UCUUGUUCUGGUUUGGUUUUGAAC [Bn-miRnovel2]	29	22	41	260	35	5.8	4490	267
GGCUCGAAACGAGGAGAAAAAAUCAUUAGUUAUCGAAAAUGCUCACAUGAUGUGGGCCUAACCACUAACCCAAUUAACCACACAUCUUAAUCAGAGUAAGUUGAAACAAAUCUUUCAGCAAACCCUAGAAAACAUGUUUAACCCUAGUUAUUACGUCACACCUGUUCUAUAAAUUAAGGCUGCGUCUUAUCACCUCAAAUCACAUAAGUCUCUCUCUUACAUUUUGAAACCCUAAUUUCUCUUCUUUUCCCCAAAAAAAAAUGUCUGAAGUUGAGUACCGGUGCUUUGUCGGCGGCCUUGCCUGGGCCACCAAUGAUGAAGAUCUUCAAAGGACGUUCUCACAGUUCGGCGACGUUAUCGAUUCUAAGGUCUGUUACACGAGAGAUCGGUCUCCCGGAUCGAGCCGAUUCCGAUGAUUCUGAUCCUCGACGGAUCUGAUUCCGAUCUGUUUCUCUGUUACUUGAUUCGAUUACUGUUACUAUGUUCUCUCUCGUUCUUUGUUACUGUUACUUAAUUUGUCCCAUCGGUACGUUCAUCUUCCUGCUUCUAUGAGCUCGGAGAUCGAUCGAUUUUUGCUUUAUAUUCAUCGCUUUGUUUUAUAUUCCUUCCACGAUUGUUUUUGCUGAUGUGUAUGAUUUUGUUUGUUUACAGAUCAUUAACGACCGCGAGAGUGGAAGAUCAAGGGGAUUCGGAUUCGUCACCUUCAAGGACGAGAAAGCCAUGAGGGAUGCGAUUGAAGAGAUGAACGGUAAAGAGCUCGAUGGACGUGUCAUCACCGUGAACGAGGCUCAGUCGAGAGGUAGCGGCGGUGGCGGAGGAGGCCGUGGUGGAAGCGGUGGUGGUUACCGCAGCGGAGGCGGUGGUGGAUACUCAGGAGGCGGUGGCGGCGGAUACUCAGGAGGAGGCGGUGGUGGUUACGAGAGACGUAGCGGAGGUUACGGAUCUGGUGGAGGCGGUGGUGGCCGAGGAUACGGUGGUGGUGGACGCCGUGAGGGAGGUGGCUACGGAGGCGGUGAUGGUGGAAGUUACGGAGGCGGUGGUGGCGGCUGGUAAUCAAAGAUAGAGUUGUUUGCGUGCUGCUGCUCUGUUUUUGGUUUAGAUUUGGUUUUGUGUCACCACUUCUGGUUUGGUUAUCGUUCGUUUGGUUUACUUUUUUGAUGAAACAGUUUCGUUUAAGUCUUCUUUGUCUGGAACGAAAUGUUAAUUCGCGUGUUGUUUACUAAAUUUAUAACGUUUCCUUUUAACCAGAUUCGAGAUUUUCCCUCAAAUAAUUUAUCUUGUUAGACACAUGUAUUUAAUCGAACAGCAGCUAAAGGAUUCAAAUGAUUUUCUUAUCAAUAAUUACUAUAGUUUGAAAUUGAUUAGUUCUUUAACUUUUGACCUACCAAUA [AtGRP8]	923	1370	3390	156	312	502		
GGAUUUGCGCAUUAAACCAAAAAGUGUCACGUGAUAUGUCCCCAACCACUACGAAUUUUAACUACAGAUUUAACCAUGGUUAAACCAGAAUUCACGUAAACCGACUCUAAACCUAGAAAAUAUCUAAACCUUGGUUAAUAUCUCAGCCCCCUUAUAAAUAACGAGACUUCGUCUACAUCGUUCUACACAUCUCACUGCUCACUACUCUCACUGUAAUCCCUUAGAUCUUCUUUUCAAAUUUCAAUGGCGUCCGGUGAUGUUGAGUAUCGGUGCUUCGUUGGAGGUCUAGCAUGGGCCACUGAUGACAGAGCUCUUGAGACUGCCUUCGCUCAAUACGGCGACGUUAUUGAUUCCAAGGUCUGUUACACGCCGAGAUCGGACUCCGAGUGAUAUCGAUGAUCUCAUCCUCGACGGAUCUGUUCCGAUCUUGUGUUUCUCUGUUACUUGAUUCGAUUACUCUGUUACUAUUCUCGUUCUUUGUUACUACUACUACUACUACUGUUACUUGUAUUUUCCCAAAUCGGUACGUUCAUCUUCCUGCUUCUGUGAGCCCGGAGAUCGAUCGGAUUUUUUUGUAUUUUGUAUAUUUGUUGUAGAUCUAAAUGCUUUUGUUCAGUUUUGUUGGAUUGUUUUGCUGAUCUGGUUUUUGUAUUAUUUGGAUAACAGAUCAUUAACGAUCGUGAGACUGGAAGAUCAAGGGGAUUCGGAUUCGUCACCUUCAAGGAUGAGAAAGCCAUGAAGGAUGCGAUUGAGGGAAUGAACGGACAAGAUCUCGAUGGCCGUAGCAUCACUGUUAACGAGGCUCAGUCACGAGGAAGCGGUGGCGGCGGAGGCCACCGUGGAGGUGGUGGCGGUGGAUACCGCAGCGGCGGUGGUGGAGGUUACUCCGGUGGAGGUGGUAGCUACGGAGGUGGCGGCGGUAGACGCGAGGGUGGAGGAGGAUACAGCGGCGGCGGCGGCGGUUACUCCUCAAGAGGUGGUGGUGGCGGAAGCUACGGUGGUGGAAGACGUGAGGGAGGAGGAGGAUACGGUGGUGGUGAAGGAGGAGGUUACGGAGGAAGCGGUGGUGGUGGAGGAUGGUAAUUCCUUUAAUUAGGUUUGGGAUUACCAAUGAAUGUUCUCUCUCUCGCUUGUUAUGCUUCUACUUGGUUUUGUGUGUUCUCUAUUUUGUUCUGGUUCUGCUUUAGAUUUGAUGUAACAGUUCGUGAUUAGGUAUUUUGGUAUCUGGAAACGUAAUGUUAAGUCACUUGUCAUUCUCUAAAUAACAAAUUUCUUCGGAGAUAUUAUCUCUGUUGAUUGAUUCUAUCAUCUAAAUUUCGGAAAUGCUAAUCGGAUACCGGAAUGGUGCCUUUGUUACGAUUGAGUUACUUACAUCACUGAUACAACAAUGAAGUACUUACUGAUUAUCUUUAUACCAUUCACCACACUACCUUUGAUAUUCAACAAUGAAGUAGAAACCUAUUUGGUUCAUUCGCA [AtGRP7]	1790	606	19300	364	172	16200		21300
UGGAGAAGCAGGGCACGUGCA [miR164]				42		21	5930	
AtCOR15A	738	2230	3750	224	741	323		23400
GGAUGUCUGAAGUUGAGUACCGGUGCUUUGUCGGCGGCCUUGCCUGGGCCACCAAUGAUGAAGAUCUUCAAAGGACGUUCUCACAGUUCGGCGACGUUAUCGAUUCUAAGAUCAUUAACGACCGCGAGAGUGGAAGAUCAAGGGGAUUCGGAUUCGUCACCUUCAAGGACGAGAAAGCCAUGAGGGAUGCGAUUGAAGAGAUGAACGGUAAAGAGCUCGAUGGACGUGUCAUCACCGUGAACGAGGCUCAGUCGAGAGGUAGCGGCGGUGGCGGAGGAGGCCGUGGUGGAAGCGGUGGUGGUUACCGCAGCGGAGGCGGUGGUGGAUACUCAGGAGGCGGUGGCGGCGGAUACUCAGGAGGAGGCGGUGGUGGUUACGAGAGACGUAGCGGAGGUUACGGAUCUGGUGGAGGCGGUGGUGGCCGAGGAUACGGUGGUGGUGGACGCCGUGAGGGAGGUGGCUACGGAGGCGGUGAUGGUGGAAGUUACGGAGGCGGUGGUGGCGGCUGGUAA [AtGRP8]	937	493	381	177	135	9160		2790
